The text below walks through data of patent publication US20110318339A1 (FABRUS, published 2011).

The target of test [1] is T1, recombinant human DLL4 (Cat# 1506-D4/CF, R&D Systems) (human, UniProt Q9NR61 27-529).
T1 construct: Bought protein; also called hDLL4; h DLL4
The experiment in a line: ELISA, hDLL4 coated 0.5 ng/ul, Fab 0.08 nM. As for the experimental part: (§1) The plate was blocked by adding 1% BSA in Tris-buffered Saline Tween (TBST) and incubating for 1 hour at room temperature followed by washing 2 times with 150 μl TBST. A Fab antibody was serially diluted in 1% BSA in PBS. A 50 μl aliquot of each serial dilution was added, in triplicate, to each well and the plate was incubated for 1 hour at room temperature followed by washing 2 times with TBST. 50 μl of either goat anti-human kappa HRP conjugated secondary antibody (Cat # A7164-1 mL, Sigma-Aldrich) or goat anti-human lambda HRP conjugated secondary antibody (Cat # L1645-1 ml, Sigma-Aldrich), diluted 1:1000 in 1% BSA in PBS, was added to each well and the plate was incubated for 30 minutes at room temperature followed by washing 3 times with 200 μl TBST. Finally, 50 μl TMB one-component reagent (Cat # TMBW-1000-01, BioFax) was added and allowed to develop for 2 minutes at room temperature. The reaction was immediately halted by the addition of 50 μl 0.5M H₂SO₄ and the absorbance at 450 nm was measured using an ELISA plate reader.

Test [2] has as its target T1, recombinant human DLL4 (Cat# …). The experiment in a line: ELISA, hDLL4 coated 0.5 ng/ul, Fab 0.16 nM. The procedure:
(§2) In this example, an ELISA binding assay was used to assess the dose-dependent binding of Fab antibodies to recombinant human DLL4 and recombinant mouse DLL4.
as §1

For test [3] the target is unchanged. The experiment in a line: ELISA, hDLL4 coated 0.5 ng/ul, Fab 0.31 nM. As for the experimental part:
as §2, §1
Background: ELISA stands for enzyme-linked immunosorbent assay.

The target is the same in test [4]. The experiment in a line: ELISA, hDLL4 coated 0.5 ng/ul, Fab 0.63 nM. As for the experimental part: as §1
The target is the same in test [5]. The experiment in a line: ELISA, hDLL4 coated 0.5 ng/ul, Fab 1.25 nM. As for the experimental part:
as §2, §1

The target is the same in test [6]. The experiment in a line: ELISA, hDLL4 coated 0.5 ng/ul, Fab 2.50 nM. As for the experimental part:
as §2, §1

For test [7] the target is unchanged. The experiment in a line: ELISA, hDLL4 coated 0.5 ng/ul, Fab 5.00 nM. As for the experimental part:
as §2, §1

Test [8] concerns the target T2, recombinant mouse DLL4 (Cat# 1389-D4-050/CF, R&D Systems) (mouse, UniProt Q9JI71 28-525).
T2 construct: Bought protein; also called mDLL4
The experiment in a line: ELISA, mDLL4 coated 0.5 ng/ul, Fab 0.08 nM. As for the experimental part: as §1

Test [9] addresses T2, recombinant mouse DLL4 (Cat# …). The experiment in a line: ELISA, mDLL4 coated 0.5 ng/ul, Fab 0.16 nM. As for the experimental part:
as §1

Test [10] has the same target. The experiment in a line: ELISA, mDLL4 coated 0.5 ng/ul, Fab 0.31 nM. The procedure: as §1
Test [11] has the same target. The experiment in a line: ELISA, mDLL4 coated 0.5 ng/ul, Fab 0.63 nM. The procedure:
as §1

For test [12] the target is unchanged. The experiment in a line: ELISA, mDLL4 coated 0.5 ng/ul, Fab 1.25 nM. As for the experimental part: as §2, §1
Test [13] shares this target. The experiment in a line: ELISA, mDLL4 coated 0.5 ng/ul, Fab 2.50 nM. The procedure: as §2, §1
The target is the same in test [14]. The experiment in a line: ELISA, mDLL4 coated 0.5 ng/ul, Fab 5.00 nM. As for the experimental part:
as §2, §1

Test [15] addresses T1, recombinant human DLL4 (Cat# …). The experiment in a line: ELISA, hDLL4 coated 0.5 ng/ul, Fab 10.00 nM. The procedure:
as §2, §1

The target in test [16] is T2, recombinant mouse DLL4 (Cat# …). The experiment in a line: ELISA, mDLL4 coated 0.5 ng/ul, Fab 10.00 nM. As for the experimental part: as §1
For test [17], the target named is T3, full-length human DLL4 expressed on the surface of CHO cells (human, UniProt Q9NR61 26-685).
T3 construct: also called CHO-DLL4; DLL4-expressing CHO cells
The experiment in a line: flow cytometry competition, 250 nM biotinylated Notch-Fc as competitor, Fab 2 nM. As for the experimental part: (§3) Streptavidin-PE was used as a detection molecule.
(§4) Fab was 5-fold serially diluted in 2% BSA/PBS from a starting concentration of 50 nM. […] PE-labeled streptavidin (Cat# 21627, Pierce-Thermo Scientific) was then added to a final dilution of 1:5 followed by incubation for 10 minutes at room temperature. The cells were then washed twice in 2% BSA/PBS and analyzed by flow cytometry on a BD FACSAria.
For orientation: Flow cytometry measures light scatter and fluorescence of single cells or particles in a stream.

The target of test [18] is T3, full-length human DLL4 expressed on the …. The experiment in a line: flow cytometry competition, 250 nM biotinylated Notch-Fc as competitor, Fab 10 nM. The procedure:
as §3, §4

Test [19] shares this target. The experiment in a line: flow cytometry competition, 250 nM biotinylated Notch-Fc as competitor, Fab 50 nM. The procedure:
as §3, §4

For test [20], the target named is T4, Recombinant Human DLL4 (Cat# 1506-D4/CF, R&D Systems) (human, UniProt Q9NR61 27-529).
T4 construct: Bought protein; also called rHuman DLL4; hDLL4
The experiment in a line: ELISA, DLL4 coated.

Test [21] addresses T4, Recombinant Human DLL4 (Cat# …). The experiment in a line: ELISA, hDLL4 coated, estimated from dose-dependent binding.
Test [22] addresses T1, recombinant human DLL4 (Cat# …). The experiment in a line: ELISA, hDLL4 coated 0.5 ng/ul, Fab 0.78 nM. As for the experimental part:
as §1

The target is the same in test [23]. The experiment in a line: ELISA, hDLL4 coated 0.5 ng/ul, Fab 1.56 nM. The procedure:
as §1

For test [24] the target is unchanged. The experiment in a line: ELISA, hDLL4 coated 0.5 ng/ul, Fab 3.13 nM. As for the experimental part:
as §1

Test [25] has the same target. The experiment in a line: ELISA, hDLL4 coated 0.5 ng/ul, Fab 6.25 nM. As for the experimental part: as §1
The target is the same in test [26]. The experiment in a line: ELISA, hDLL4 coated 0.5 ng/ul, Fab 12.50 nM. As for the experimental part: as §1
Test [27] shares this target. The experiment in a line: ELISA, hDLL4 coated 0.5 ng/ul, Fab 25.00 nM. As for the experimental part:
as §1

Test [28] has the same target. The experiment in a line: ELISA, hDLL4 coated 0.5 ng/ul, Fab 50.00 nM. The procedure:
as §1

The target is the same in test [29]. The experiment in a line: ELISA, hDLL4 coated 0.5 ng/ul, Fab 100.00 nM. As for the experimental part: as §1

Where a chain is given by its changes, count along the chain named. In names and notes the source's numbering stands.

T2 sequence (Q9JI71 28-525 limits assumed): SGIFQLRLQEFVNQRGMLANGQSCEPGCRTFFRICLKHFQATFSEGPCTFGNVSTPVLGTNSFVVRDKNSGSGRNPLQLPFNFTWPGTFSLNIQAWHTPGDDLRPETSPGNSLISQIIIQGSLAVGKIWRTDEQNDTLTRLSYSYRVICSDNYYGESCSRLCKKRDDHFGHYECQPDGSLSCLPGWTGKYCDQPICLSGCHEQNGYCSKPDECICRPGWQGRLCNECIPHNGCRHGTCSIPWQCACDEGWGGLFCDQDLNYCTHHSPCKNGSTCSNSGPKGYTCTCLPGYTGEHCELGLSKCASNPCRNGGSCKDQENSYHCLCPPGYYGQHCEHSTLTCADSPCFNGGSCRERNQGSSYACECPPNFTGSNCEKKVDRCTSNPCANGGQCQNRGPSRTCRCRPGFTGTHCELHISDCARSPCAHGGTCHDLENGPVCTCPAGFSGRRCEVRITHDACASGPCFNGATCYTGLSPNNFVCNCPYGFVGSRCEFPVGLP

B1: Fab VH1-46_IGHD6-6*01_IGHJ1*01 S102A/S103P/S104F/H111F I51V/N52L/S54T/G56H (H:APFF VLTH) & L6_IGKJ1*01 S28N/S30D/S31H S52L/A55S (L:NDH LS) (Fab, V domains shown)
VH: QVQLVQSGAEVKKPGASVKVSCKASGYTFTSYYMHWVRQAPGQGLEWMGIVLPTGHSTSYAQKFQGRVTMTRDTSTSTVYMELSSLRSEDTAVYYCAREEYAPFSAEYFQFWGQGTLVTVSS
VL: EIVLTQSPATLSLSPGERATLSCRASQNVDHYLAWYQQKPGQAPRLLIYDALNRSTGIPARFSGSGSGTDFTLTISSLEPEDFAVYYCQQRSNWPPWTFGQGTKVEIKR
notes: Tested as Fab from E. coli (Plasmid A: CH1, His6, Flag; Plasmid C: CL kappa); also called H:APFF VLTH & L:NDH LS; APFF VLTH / NDH LS
As for B1, the “ELISA absorbance at 450 nm” value in test [1] amounted to 0.259 A450; in test [2] it was 0.593 A450; in test [3], 0.85 A450; in test [4], 1.4 A450; in test [5], 1.65 A450; in [6], 1.96 A450. Further, the “ELISA absorbance at 450 nm” value in test [7] worked out at 2.06 A450; in test [8] it was 0.078 A450; in test [9], 0.142 A450; in [10], 0.205 A450; in [11], 0.404 A450; in test [12], 0.604 A450. Also, the “ELISA absorbance at 450 nm” value in [13] turned out to be 0.983 A450; in test [14], 1.28 A450; in [15], 2.25 A450; in [16], 1.55 A450. Further, the “signal of Notch-Fc bound to CHO-DLL4 (streptavidin-PE)” value (shortened to “signal of Notch-Fc bound to CHO-DLL4”) in test [17] is 117; in test [18], 30; in test [19], 30.

B2: Fab H:APFF VLTH & L:NDH (Fab, V domains shown)
VH: B1 VH
VL: B1 VL with L52S, S55A
notes: Fab, kappa light chain
Consider B2, for which the “fold increased binding affinity against the antibody mutants with heavy chain H:APFF ALTH” value in [20] was about 10 fold. Also, the Kd (commonly the free concentration of one partner at which half of the binding sites on the other are occupied at equilibrium, for simple one-to-one binding) in test [21] was about 1 nM.

B3: Fab VH5-51_IGHD5-18*01>3_IGHJ4*01 G100K/G104T G24T/S28R/G35V (H:KT TRV) & V3-4_IGLJ1*01 (Fab, V domains shown)
VH: EVQLVQSGAEVKKPGESLKISCKTSGYRFTSYWIVWVRQMPGKGLEWMGIIYPGDSDTRYSPSFQGQVTISADKSISTAYLQWSSLKASDTAMYYCARRKYSYTYDYFDYWGQGTLVTVSS
VL: QTVVTQEPSFSVSPGGTVTLTCGLSSGSVSTSYYPSWYQQTPGQAPRTLIYSTNTRSSGVPDRFSGSILGNKAALTITGAQADDESDYYCVLYMGSGISYVFGTGTKVTVL
notes: Tested as Fab from E. coli (Plasmid A: CH1, His6, Flag; Plasmid E: CL lambda); also called H:KT TRV & L:wt
In the case of B3, the “ELISA absorbance at 450 nm” value in test [22] turned out to be 0.143 A450; in [23], 0.183 A450; in test [24], 0.187 A450; in test [25] it was 0.31 A450; in test [26], 0.389 A450; in [27] it was 0.6 A450. For the same molecule, the “ELISA absorbance at 450 nm” value in test [28] is 0.976 A450; in [29], 1.45 A450. For the same molecule, the results for the “signal of Notch-Fc bound to CHO-DLL4” value in test [17], in test [18] and in test [19] were 448, 244 and 141, respectively.

B4: Fab VH5-51_IGHD5-18*01>3_IGHJ4*01 G100K/G104T G24T/S28R/G35V (H:KT TRV) & V3-4_IGLJ1*01 V91L/S96P S52G (L:LP S52G) (Fab, V domains shown)
VH: B3 VH
VL: B3 VL with S52G, V91L, S96P
notes: Tested as Fab from E. coli (Plasmid A: CH1, His6, Flag; Plasmid E: CL lambda); also called H:KT TRV & L:LP S52G
B4: the “signal of Notch-Fc bound to CHO-DLL4” value in [17] came out at 250; in [18] it was 190; in test [19] it was 105.

B5: Fab VH5-51_IGHD5-18*01>3_IGHJ4*01 H:KT TRV & V3-4_IGLJ1*01 (Fab, V domains shown)
VH: B3 VH
VL: B3 VL
notes: Fab, lambda light chain; also called H:KT TRV & L:wt; G100K/G104T G24T/S28R/G35V
On to B5, for which the dissociation constant (Kd) in test [21] is about 50 nM.
